The source of these data is US20240409645A1.

T1: mouse IL-2Rγ (mouse) (UniProt P34902)
T1 sequence (looked up): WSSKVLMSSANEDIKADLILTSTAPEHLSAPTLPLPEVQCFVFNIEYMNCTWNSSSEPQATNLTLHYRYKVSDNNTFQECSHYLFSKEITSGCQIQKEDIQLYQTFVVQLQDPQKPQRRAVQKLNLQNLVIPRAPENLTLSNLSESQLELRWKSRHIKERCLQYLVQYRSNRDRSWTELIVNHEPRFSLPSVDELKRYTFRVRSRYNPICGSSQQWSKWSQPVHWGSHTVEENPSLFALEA

B1: FJ1427_P035MP04B03 (VHH)
VHH: QVQLQESGGGLVQAGESLRLSCAASGPTASRVAVAWFRQVPGKEREFVAVVNRPGTMTKYADSVKGRFTISRDSAKNTVYLQMNSLKPEDTAVYYCAADSVPYGRPYYFQTSAGNYDYWGQGTQVTVSS
B2: FJ1427_P035MP04A04 (VHH)
VHH: QVQLVESGGGLVQAGESLRLSCAASGPTASRVAVAWFRQVPGKEREFVAVVNRPGTMTKYADSVKGRFTISRDSAKNTVYLQMNSLKPEDTAVYYCAADSVPYGRPYYFQTSAGNYDYWGQGTQVTVSS
B3: FJ1427_P035MP04H08 (VHH)
VHH: EVQLVESGGGLVQAGESLRLSCAASGPTASRVAVAWFRQVPGKEREFVAVVNRPGTMTKYADSVKGRFTISRDSAKNTVYLQMNSLKPEDTAVYYCAADSVPYGRPYYFQTSAGNYDYWGQGTQVTVSS
B4: FJ1427_P035MP04D08 (VHH)
VHH: QVQLVESGGGLVQAGESLRLSCAASGPTASRVAVAWFRQVPGKEREFVAVVNRPGTMTKYADSVKGRFTISRDSAKNTVYLQMNSLKPEDTAVYYCAADSVPYGRPYYFQTSAGNYDYWGQGTQVTVSS
B5: 35-MP07G01 (VHH)
VHH: QVQLQESGGGLVQGGGSLRLSCAASGGIFSSYAMGWFRQAPGKEREFVAAISRSGRSTNYADSVKGRFTISRDNAKSTVYLQMNSLKPEETAVYYCAAGRYYNSAYDPSPGDFGSWGHGTQVTVSS
B6: 33-MP04C09 (VHH)
VHH: QLQLVESGGGLVQAGGSLRLSCAASGPTFSRVAVGWFRQAPGKEREFVAAVNRPATMTKYADSVKGRFTVSRDNAKNTVDLQMNSMKPEDTAVYYCAADSVPYGRPYYWQTSAGDYDYWGQGTQVTVSS
B7: FJ1427_P035MP04F02 (VHH)
VHH: QLQLVESGGGLVQAGGSLTLSCAASGRTFSRDVVGWFRQAPGKEREFVASISRSGDGTFYTDSVKGRFTISSRDNAKNTVLLQMNSLKVEDTAVYYCAAGDGWSTYDYWGQGTQVTVSS
B8: FJ1427_P035MP04A09 (VHH)
VHH: QVQLVESGGGLVQAGGSLRLSCAASGRTFGAVAVGWFRQVPGKEREFVAAINRNGSATKYADSAKGRFTISRDNAESPVYLQMNSLKPEDTAIYYCAADSLPYGRPYYFQTSAGEYDYWGQGTQVTVSS
B9: FJ1427_P035MP04C01 (VHH)
VHH: QVQLVESGGGLVQAGGSLTLSCAASGRTFSTDVVGWFRQAPGKEREFVASISRSGDGIYYDDSVKGRFTISRNNAWNTVNLQMNNLKVEDTAVYYCAAGDGWSTYDYWGQGTQVTVSS
B10: 32-MP04A08 (VHH)
VHH: QVQLVESGGGLVQAGGSLRLSCAASGRTFGSTAVGWFRQVPGKEREFVSAINRSGSATTYADSVKGRFTISRDNAKNTVYLQMNSLTPEDTGVYYCAADSLPYGRPYYFQRSAGEYDYWGQGTQVTVSS
B11: FJ1427_P035MP04B02 (VHH)
VHH: QVQLVESGGGWVQVGESLRLSCAPSGRTFVSGIMGWFRQTPGKEREFVARIILNNNSTRYTDSVKGRFTISRDSAKNTMYLQMNTLRPEDTAVYYCAARDRYGSGNSLSPSAYDYWGQGTQVTVSS
B12: FJ1427_P035MP04G08 (VHH)
VHH: QVQLVESGGGWVQVGESLRLSCAPSGRTFVSGIMGWFRQAPGKEREFVARIILNNNSTRYTDSVKGRFTISRDSAKNTMYLQMDSLRPEDTAVYYCAARDRYGSGNSLSPSAYDYWGQGTQVTVSS
B13: FJ1427_P035MP04E02 (VHH)
VHH: QVQLVESGGGWVQVGESLRLSCAPSGRTFVSGIMGWFRQTPGKEREFVARIILNNNSTRYTDSVKGRFTISRDSAKNTMYLQMNTLRPEDTAVYYCAARDRYGSGNSLSPSAYDYWGQGTQVTVSS
B14: FJ1427_P035MP04A03 (VHH)
VHH: EVQLVESGGGWVQVGESLRLSCAPSGRTFVSGIMGWFRQTPGKEREFVARIILNNNSTRYTDSVKGRFTISRDSAKNTMYLQMNTLRPEDTAVYYCAARDRYGSGNSLSPSAYDYWGQGTQVTVSS
B15: FJ1427_P035MP04A07 (VHH)
VHH: QLQLVESGGGWVQVGESLRLSCAPSGRTFVSGIMGWFRQAPGKEREFVARIILNNNSTRYIDSVKGRFTISRDSAKNTMYLQMDSLRPEDTAVYYCAARDRYGSGNSLSPSAYDYWGQGTQVTVSS
B16: FJ1427_P035MP04C05 (VHH)
VHH: QVQLVESGGGWVQVGESLRLSCAPSGRTFVSGIMGWFRQAPGKEREFVARIILNNNSTRYTDSVKGRFTISRDSAKDTMYLQMNTLRPEDTAVYYCAARDRYGSGNSLSPSAYDYWGQGTQVTVSS
B17: FJ1427_P035MP04D09 (VHH)
VHH: QVQLVESGGGWVQVGESLRLSCAPSGRTFVRGIMGWFRQAPGKEREFVARIILNSNSTRYIDSVKGRFTISRDSAKNTMYLQMNSLRPEDTAVYYCAARDRYGSGNSLSPSAYDYWGQGTQVTVSS
B18: FJ1427_P035MP04G03 (VHH)
VHH: EVQLVESGGGWVQVGESLRLSCAPSGRTFVSGIMGWFRQAPGKEREFVARIILNNNSTRYTDSVKGRFTISRDSAKNTMYLQMDSLRPEDTAVYYCAARDRYGSGNSLSPSAYDYWGQGTQVTVSS
B19: FJ1427_P035MP04G07 (VHH)
VHH: QVQLVESGGGWVQVGESLRLSCAPSGRTFVSGIMGWFRQAPGKEREFVARIILNNNSTRYTDSVKGRFTISRDSAKNTMYLQMNTLRPEDTAVYYCAARDRYGSGNSLSPSAYDYWGQGTQVTVSS
B20: FJ1427_P035MP04B07 (VHH)
VHH: EVQLVESGGGWVQVGESLRLSCAPSGRTFVSGIMGWFRQTPGKEREFVARIILNNNSTRYTDSVKGRFTISRDSAKNTLYLQMNTLRPEDTAVYYCAARDRYGSGNSLSPSAYDYWGQGTQVTVSS
B21: FJ1427_P035MP04B06 (VHH)
VHH: QLQLVESGGGWVQVGESLRLSCVPSGRTFVSGIMGWFRQAPGKEREFVARIILNNNSTRYTDSVKGRFTISRDSAKNTMYLQMNTLRPEDTAVYYCAARDRYGSGNSLSPSAYDYWGQGTQVTVSS
B22: FJ1427_P035MP04E04 (VHH)
VHH: EVQLVESGGGWVQVGESLRLSCVPSGRTFVSGIMGWFRQAPGKEREFVARIILNSNSTRYTDSVKGRFTISRDSAKNTMYLQMNSLRPEDTAVYYCAARDRYGSGNSLSPSAYDYWGQGTQVTVSS

The experiment concerns the target T1, mouse IL-2Rγ (mouse). Nature of the experiment: PE binding ELISA, periplasmic extract on coated protein. On the technique in general: ELISA stands for enzyme-linked immunosorbent assay.
B1 registered an OD (PE binding ELISA) of 0.048 OD450 nm.
Regarding B2, the OD (PE binding ELISA) was found to be 0.05 OD450 nm.
B3 had an OD (PE binding ELISA) of 0.053 OD450 nm.
B4 had an OD (PE binding ELISA) of 0.048 OD450 nm.
Then B5, with 0.045 OD450 nm; and B6, with 0.047 OD450 nm; and B7, with 0.049 OD450 nm.
In turn, B8 displayed an OD (PE binding ELISA) of 0.049 OD450 nm.
Then B9, with 0.049 OD450 nm.
B10 yielded an OD (PE binding ELISA) of 0.05 OD450 nm.
Then B11, with 0.048 OD450 nm; and B12, with 0.049 OD450 nm.
Molecule B13 yielded an OD (PE binding ELISA) of 0.049 OD450 nm.
In turn, B14 gave an OD (PE binding ELISA) of 0.052 OD450 nm.
Then B15, with 0.049 OD450 nm.
Turning to B16, the OD (PE binding ELISA) was found to be 0.047 OD450 nm.
Then B17, with 0.048 OD450 nm.
Consider B18, for which the OD (PE binding ELISA) amounted to 0.049 OD450 nm.
B19 gave an OD (PE binding ELISA) of 0.049 OD450 nm.
Then B20, with 0.047 OD450 nm.
As to B21, the OD (PE binding ELISA) was determined as 0.048 OD450 nm.
Then B22, with 0.048 OD450 nm.
